Like-named read-outs stand apart in the source and are kept apart here.
Assays:
[1] = Oral pharmacokinetics in rats, plasma d-amphetamine by ELISA; details: for Percent AUC / Percent Cmax: Oral; for Bioequivalence with amphetamine: rat, oral
[2] = cited from earlier work; for Blood level: 12.5 mg dose
[3] = Oral bioavailability of hydrocodone conjugates in rats, LC/MS/MS; details: for AUC (ng/ml h) 0-8 h / Cmax: hydrocodone plus hydromorphone; for Percent HC (AUC) / Percent HC (Cmax): relative to hydrocodone bitartrate
[4] = Intranasal bioavailability of hydrocodone conjugates in rats, LC/MS/MS; details: intranasal, 1 mg/kg dose
[5] = Intravenous bioavailability of hydrocodone conjugates in rats, LC/MS/MS; details: intravenous, 1 mg/kg dose
[6] = Oral plasma levels of oxycodone conjugates in rats, ELISA; details: oral 2 mg/kg
[7] = Intranasal plasma levels of oxycodone conjugates in rats, ELISA; details: intranasal 2 mg/kg
[8] = relative to amphetamine (first value where two are given)
[9] = relative to amphetamine, second of two values printed in the cell
[10] = relative to hydrocodone bitartrate

With `CC(C)CC(N)C(=O)NC(C)Cc1ccccc1` [L-Amp] the “Percent AUC” value [1, 8] was 65% and the “Percent Cmax” value [1, 8] was 81%.
In the case of `CC(C)C[C@H](N)C(=O)N[C@@H](CCC(=O)O)C(=O)NC(C)Cc1ccccc1` (stereo partly drawn) [LE-Amp], the “Percent AUC” value [1, 8] is reported as 40% and the “Percent Cmax” value [1, 8] is reported as 28%.
In the case of `COc1ccc2c3c1O[C@H]1C(=O)CC[C@@]4(O)[C@@H](C2)N(C)CC[C@]314` [Oxycodone], the Therapeutic plasma concentration ([2]; in vivo) is listed as 10 to 100 ng/mL and the Toxic plasma concentration ([2]; in vivo) is listed as “greater than 200 ng/mL”.
With `CC(Cc1ccccc1)NC(=O)C(N)Cc1ccccc1` (stereo not drawn) [Phe-Amp, 2-amino-3-phenylpropanoic acid-(1-methyl-2-phenylethyl)-amide] the Bioequivalence with amphetamine [1] was “bioequivalent with amphetamine”.
With `CC(Cc1ccccc1)NC(=O)C(N)CO` (stereo not drawn) [S-Amp] the “Percent AUC” value [1, 8] was 79%, the “Percent Cmax” value [1, 8] was 62% and the “Percent AUC” value [1, 9] was 55%. The “Percent Cmax” value [1, 9] was 75%.
For `CC(Cc1ccccc1)NC(=O)C(N)CO` (stereo not drawn) [Ser-Amp, 2-amino-3-hydroxylpropanoic acid-(1-methyl-2-phenylethyl)-amide], the Bioequivalence with amphetamine [1] was “not bioequivalent with amphetamine”.
For `CC[C@H](C)[C@H](NC(=O)[C@H](Cc1ccc(O)cc1)NC(=O)[C@@H](N)Cc1ccc(O)cc1)C(=O)OC1=CC[C@H]2[C@H]3Cc4ccc(OC)c5c4[C@@]2(CCN3C)[C@H]1O5` [YYI-HC, Tyr-Tyr-Ile-Hydrocodone], the “Percent Decrease 1 mg/kg vs. 5 mg/kg AUC” value ([3]; oral bioavailability) was 41%, the “Percent Decrease 1 mg/kg vs. 5 mg/kg Cmax” value ([3]; oral bioavailability) was 60% and the “hydrocodone plus hydromorphone concentration” value ([3]; oral, 1 mg/kg dose, 0.5 Hours) was 9.2 ng/mL. For the same compound, the “hydrocodone plus hydromorphone concentration” value ([3]; oral, 1 mg/kg dose, 1.5 Hours) was 4.3 ng/mL, the “hydrocodone plus hydromorphone concentration” value ([3]; oral, 1 mg/kg dose, 3 Hours) was 1.5 ng/mL and the “hydrocodone plus hydromorphone concentration” value ([3]; oral, 1 mg/kg dose, 5 Hours) was 1.1 ng/mL. For the same compound, the “hydrocodone plus hydromorphone concentration” value ([3]; oral, 1 mg/kg dose, 8 Hours) was 1.8 ng/mL, the “AUC (ng/ml h) 0-8 h” value ([3]; oral, 1 mg/kg dose) was 20.4 ng·h/mL and the Cmax ([3]; oral, 1 mg/kg dose) was 9.2 ng/mL. The “Percent HC (AUC)” value ([3]; oral, 1 mg/kg dose) was 78%, the “Percent HC (Cmax)” value ([3]; oral, 1 mg/kg dose) was 100% and the “hydrocodone plus hydromorphone concentration” value ([3]; oral, 5 mg/kg dose, 0.5 Hours) was 15 ng/mL. The “hydrocodone plus hydromorphone concentration” value ([3]; oral, 5 mg/kg dose, 1.5 Hours) was 6.3 ng/mL, the “hydrocodone plus hydromorphone concentration” value ([3]; oral, 5 mg/kg dose, 3 Hours) was 3.3 ng/mL and the “hydrocodone plus hydromorphone concentration” value ([3]; oral, 5 mg/kg dose, 5 Hours) was 1.6 ng/mL. For the same compound, the “hydrocodone plus hydromorphone concentration” value ([3]; oral, 5 mg/kg dose, 8 Hours) was 2.7 ng/mL, the “AUC (ng/ml h) 0-8 h” value ([3]; oral, 5 mg/kg dose) was 33 ng·h/mL and the Cmax ([3]; oral, 5 mg/kg dose) was 15 ng/mL. The “Percent HC (AUC)” value ([3]; oral, 5 mg/kg dose) was 46%, the “Percent HC (Cmax)” value ([3]; oral, 5 mg/kg dose) was 41% and the “Peak levels and bioavailability” value ([3]; rat, oral, 5 mg/kg) was “substantially decreased”. For the same compound, the “hydrocodone plus hydromorphone concentration” value ([4]; 5 Minutes) was 31 ng/mL, the “hydrocodone plus hydromorphone concentration” value ([4]; 15 Minutes) was 17 ng/mL and the “hydrocodone plus hydromorphone concentration” value ([4]; 30 Minutes) was 12 ng/mL. For the same compound, the “hydrocodone plus hydromorphone concentration” value ([4]; 60 Minutes) was 2 ng/mL, the “AUC (ng/ml h) 0-1 h” value ([4]; hydrocodone plus hydromorphone) was 12 ng·h/mL and the Cmax ([4]; hydrocodone plus hydromorphone) was 31 ng/mL. For the same compound, the “Percent HC (AUC)” value [4, 10] was 4%, the “Percent HC (Cmax)” value [4, 10] was 6% and the “hydrocodone plus hydromorphone concentration” value ([5]; 5 Minutes) was 9 ng/mL. The “hydrocodone plus hydromorphone concentration” value ([5]; 15 Minutes) was 13 ng/mL, the “hydrocodone plus hydromorphone concentration” value ([5]; 30 Minutes) was 13 ng/mL and the “hydrocodone plus hydromorphone concentration” value ([5]; 60 Minutes) was 3 ng/mL. The “AUC (ng/ml h) 0-1 h” value ([5]; hydrocodone plus hydromorphone) was 10 ng·h/mL, the Cmax ([5]; hydrocodone plus hydromorphone) was 13 ng/mL and the “Percent HC (AUC)” value [5, 10] was 7%. The “Percent HC (Cmax)” value [5, 10] was 6%.
For `COc1ccc2c3c1O[C@H]1C(OC(=O)[C@@H](NC(=O)[C@@H]4CCCN4C(=O)[C@@H](N)CCC(=O)O)C(C)C)=CC[C@@]4(OC(=O)[C@@H](NC(=O)[C@@H]5CCCN5C(=O)[C@@H](N)CCC(=O)O)C(C)C)[C@@H](C2)N(C)CC[C@]314` [[Glu-Pro-Val]2-OC], the “% AUC” value [6] was 142%, the “% Cmax” value [6] was 134% and the “% AUC” value [7] was 56%. The “% Cmax” value [7] was 65%.
In the case of `CC(N)Cc1ccccc1` (stereo not drawn) [amphetamine], the Steady-state blood level ([2]; addicts orally consuming an average of 1000 mg per day) is given as 2000 to 3000 ng/mL, the “Blood level at which peripheral effects (increased heart rate) start” value ([2]; in vivo) is given as 20 ng/mL and the Peak blood concentration ([2]; single oral dose of 10 mg, 2 hours) is given as 35 ng/mL.
In the case of `CN[C@@H](C)Cc1ccccc1` [methamphetamine], the Urine concentration ([2]; 10 mg, first 24 hours) is given as 500-4,000 ng/mL, the Blood level ([2]; 6 hours) is given as “about 16 ng/mL” and the Blood level ([2]; 24 hours) is given as “about 10 ng/mL”. For the same compound, the “Amphetamine concentration of methamphetamine abusers, average” value ([2]; abusers) was 1,800 ng/mL, the “Methamphetamine concentration of methamphetamine abusers, average” value ([2]; abusers) was 14,200 ng/mL and the “Amphetamine concentration of methamphetamine abusers” value ([2]; abusers, range) was 1,000-9,000 ng/mL. The “Methamphetamine concentration of methamphetamine abusers” value ([2]; abusers, range) was 2,400-33,300 ng/mL, the Estimated lethal dose ([2]; adults) was 1 g and the Estimated lethal dose ([2]; children) was 0.1 g. For the same compound, the Maximum blood concentration ([2]; single dose of 10 mg, one hour) was 30 ng/mL.
